According to patent US20250092140A1 (published 2025):

What was measured:
[1] = biological target: T1, HuB7H3-Fc (human, UniProt Q5ZPR3 29-245); test: sandwich ELISA; dual binding, HuB7H3-Fc coated, NKP30-his detected
T1 chain: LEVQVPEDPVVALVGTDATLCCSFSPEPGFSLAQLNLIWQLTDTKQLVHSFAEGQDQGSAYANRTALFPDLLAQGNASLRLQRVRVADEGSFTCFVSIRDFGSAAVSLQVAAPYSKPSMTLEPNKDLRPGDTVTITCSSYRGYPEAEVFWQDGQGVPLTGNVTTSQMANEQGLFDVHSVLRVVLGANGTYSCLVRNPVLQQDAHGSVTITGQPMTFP

[2] = biological target: T2, human-NKP30-His (human, UniProt O14931 19-138); test: ELISA
T2 chain: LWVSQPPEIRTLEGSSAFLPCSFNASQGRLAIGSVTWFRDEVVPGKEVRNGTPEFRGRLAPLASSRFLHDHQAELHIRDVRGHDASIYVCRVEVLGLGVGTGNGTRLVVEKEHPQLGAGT

[3] = biological target: T3, HuB7H3-his (human, UniProt Q5ZPR3 29-245); test: ELISA
T3 chain: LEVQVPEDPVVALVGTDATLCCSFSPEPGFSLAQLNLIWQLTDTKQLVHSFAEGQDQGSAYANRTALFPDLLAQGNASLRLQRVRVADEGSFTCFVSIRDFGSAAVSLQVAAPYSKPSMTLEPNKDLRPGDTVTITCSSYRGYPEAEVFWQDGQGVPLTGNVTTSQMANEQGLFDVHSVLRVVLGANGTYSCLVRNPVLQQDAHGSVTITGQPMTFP

B1: constructed antibody D28 (bispecific antibody)
heavy: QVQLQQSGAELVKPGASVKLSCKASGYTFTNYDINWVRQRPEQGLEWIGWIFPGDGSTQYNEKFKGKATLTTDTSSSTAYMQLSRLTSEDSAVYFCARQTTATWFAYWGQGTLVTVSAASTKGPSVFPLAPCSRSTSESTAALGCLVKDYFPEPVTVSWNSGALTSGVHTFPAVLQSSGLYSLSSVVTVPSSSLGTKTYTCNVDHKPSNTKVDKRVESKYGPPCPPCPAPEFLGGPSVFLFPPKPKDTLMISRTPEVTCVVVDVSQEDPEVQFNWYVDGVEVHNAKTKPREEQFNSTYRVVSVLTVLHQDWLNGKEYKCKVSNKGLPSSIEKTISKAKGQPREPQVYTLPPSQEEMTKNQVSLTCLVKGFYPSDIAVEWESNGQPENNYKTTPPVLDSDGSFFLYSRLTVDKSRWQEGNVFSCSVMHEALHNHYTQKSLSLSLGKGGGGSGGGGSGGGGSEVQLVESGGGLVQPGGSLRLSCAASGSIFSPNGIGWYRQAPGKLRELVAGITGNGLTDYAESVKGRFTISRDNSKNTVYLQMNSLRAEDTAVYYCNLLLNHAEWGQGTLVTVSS
light: DIVMTQSPATLSVTPGDRVSLSCRASQSISDYLHWYQQKSHESPRLLIKYASQSISGIPSRFSGSGSGSDFTLSINSVEPEDVGVYYCQNGHSFPLTFGAGTKLELKRTVAAPSVFIFPPSDEQLKSGTASVVCLLNNFYPREAKVQWKVDNALQSGNSQESVTEQDSKDSTYSLSSTLTLSKADYEKHKVYACEVTHQGLSSPVTKSFNRGEC
B1 gave an EC50 [1] of 0.445 µg/mL.

B2: constructed antibody A25 (bispecific antibody)
heavy: not shown
light: DIVMTQSPATLSVTPGDRVSLSCRASQSISDYLHWYQQKSHESPRLLIKYASQSISGIPSRFSGSGSGSDFTLSINSVEPEDVGVYYCQNGHSFPLTFGAGTKLELKRTVAAPSVFIFPPSDEQLKSGTASVVCLLNNFYPREAKVQWKVDNALQSGNSQESVTEQDSKDSTYSLSSTLTLSKADYEKHKVYACEVTHQGLSSPVTKSFNRGEC
B2 showed an EC50 [2] of 0.00817 µg/mL, an EC50 [3] of 0.0526 µg/mL and an EC50 [1] of 0.19 µg/mL.

B3: NKP30 monoclonal antibody (antibody, V domains shown)
VH: EVQLVESGGGLVQPGGSLRLSCAASGITFSRSVMGWFRQAPGKLRELVAGITSDDNTDYADSVKGRFTISRDNSKNTLYLQMNSLRAEDTAVYYCNILPDSRLGWGQGTLVTVSS
B3 gave an EC50 [2] of 0.00258 µg/mL.
